This experiment has as its target native fiber receptors. The experiment in a line: cell-based or functional assay.

Some results are limits rather than exact numbers.

The results in this text go back to patent US6649396.

Regarding “recombinant Ad5 knob (from UniProt P11818 386-581)”, the decrease in expression of luciferase after AdCMVLuc infection of mock-transfected HeLa cells and HeLa cells expressing the irrelevant sFv was greater than 95%.

“recombinant Ad2 knob (from UniProt P03275 388-582)” registered a decrease in expression of luciferase after AdCMVLuc infection of mock-transfected HeLa cells and HeLa cells expressing the irrelevant sFv greater than 95%.
